Measured values reported in the supplement of paper PMC9170038.

Key:
MS2 coat protein [1] = assay: apparent KD of MS2 coat protein; designed switch direction (-1 OFF switch, 1 ON switch): 1; higher = weaker reporter binding; conditions: Eterna round: R98
Procedure: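 RNA-MaP: designed FMN/MS2 RNA switches (84 nt design region) are transcribed on-chip within common flanks and titrated with SNAP-549-labelled MS2 coat protein (about 1-3000 nM) in 100 mM Tris pH 7.5, 80 mM KCl, 4 mM MgCl2, without or with 200 uM FMN. Median apparent KD per design; activation ratio = KD,OFF / KD,ON.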

MS2 coat protein [2] = assay: apparent KD of MS2 coat protein, switch OFF state (with FMN for OFF switches, without FMN for ON switches); designed switch direction (-1 OFF switch, 1 ON switch): 1; higher = weaker reporter binding; conditions: FMN input: 0 or 200 uM; Eterna round: R93 (includes R88 designs)
Outline: (§1)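 Apparent KD was obtained for each design as the median of normalised binding-curve fits over its clusters. RNA switches transcribed on-chip from Illumina sequencing clusters were titrated with SNAP-549-labelled MS2 coat protein (twofold steps, 0.7 or 1.5 nM to 3 µM) in 100 mM Tris-HCl pH 7.5, 80 mM KCl, 4 mM MgCl2, without or with constant ligand.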

MS2 coat protein [3] = assay: apparent KD of MS2 coat protein, switch ON state; designed switch direction (-1 OFF switch, 1 ON switch): 1; higher = weaker reporter binding; conditions: FMN input: 0 or 200 uM; Eterna round: R93 (includes R88 designs)
Outline: as §1

Sequence | apparent KD of MS2 coat protein (MS2 coat protein [1]; input ligand: FMN 200 uM) [nM] | apparent KD of MS2 coat protein (MS2 coat protein [1]; input ligand: none) [nM] | apparent KD of MS2 coat protein (MS2 coat protein [2]) [nM] | apparent KD of MS2 coat protein (MS2 coat protein [3]) [nM]
GGCCGGCAGCUAGGAUAUGGGCGGUCACAUGAGGAUCACCCAUGUCAACAUCAAAACCAGAUUAACCAGAAGGAGCUGCGAGUU [Arza] | 1230 | 27.6 |  | 
AUAAUAACUUGAGGAUAUGCUCAGGAAUACUGAGCAGAAGGCAGGGAAACCUGAGGAUCACCCAGGUAAAUAAUAAUAAUAAUA [Same State NG1 - A3C, U17G Submission 1B] | 19.3 | 24.5 |  | 
GCUGUCGCAUGAGGAUAUGGUCUGCUUUGCAGACCAGAAGGCAUGUCGAUAGACAUGAGGAUCACCCAUGUAGUAAAGACAGCA [Mat - Same State NG 1 - JL Mod - D49] | 57.1 | 306 |  | 
CGAGACACUUGAGGAUAUGCUCAGGAAUACUGAGCAGAAGGCAGGAAAACCUGAGGAUCACCCAGGUAACUGGAAAGUCUCGAA [Same State NG1 - A3C, U17G Submission 5E-G46A] | 16.9 | 19.6 |  | 
CAUGUCCUCACAGGAUAUGCUGGACUUUGUCCAGCAGAAGGGUGAUAACAUGAGGAUCACCCAUGUGGACAUGAUAUAUUUAAG [Mat - Same State NG 1 - Eli mod - D95] | 623 | 106 |  | 
GCUGCUAUCGCAGGAUAUUACAUGGGAAAUAAAACAUGAGGAUCACCCAUGUUAAAUAUCGUAAAUAAGAAGGGCGAUAGCAGC [Lame State 2 - Jieux - Same State NG 2] | 178 | 1120 |  | 
UUUGGGAGCACAGGAUAUGGCGCCUCGGAGGCGCCAGAAGGGUGAUUCUGUUGGUGGCCACAUGAGGAUCACCCAUGUGCCUCC [Rienorarve] | 19.2 | 15.9 |  | 
AUAAUAACUUGAGGAUAUGCUCAGGAAUACUGAGCAGAAGGCAGGGAAACCUGAGGAUCACCCAGGUAACUGGAAUAAUAAUAA [Same State NG1 - A3C, U17G Submission 4A] | 25.6 | 25.8 |  | 
ACUAGAAACGGGCAAUAACACAUGAGGAUCACCCAUGUGACACAGGAUAUAACCAGAUCAGAAAGUUAGAAGGGUGAGCCCGCA [Edraed Mod 1 - Jieux - Same State NG3] | 23.8 | 23.7 |  | 
AAAACAUGAGGAUCACCCAUGUAAGAAUAAUUAAUUAUAAGUGAGGAUAUAUAAAUUAUAAAAUUGUAGAAGGCACUGGGUAUC [JR_SSNG3_Sub083] | 83.6 | 71 |  | 
GACCGUCCCACAGGAUAUAGAAGGGCGUCCGUUCUAGAAGGGUGAUCAGGACCAAAAGGUCACAUGAGGAUCACCCAUGUAGGU [Usorti] | 43.7 | 36.6 |  | 
AAAACAUACCGAGGAUAUUCAUAUAAUAAAUAAACAUGAGGAUCACCCAUUUGGCAAAAGCCUAGGGAGAAGGCGGAAUGCUAA [salish99_SSNG2_r2_119] | 658 |  |  | 
AUAAUAACUUGAGGAUAUGCUCAGGAAUACUGAGCAGAAGGCAGGGAAACCUGAGGAUCACCCAGGUGAAUAAUAAUAAUAAUA [Same State NG1 - A3C, U17G Submission 1A] | 18.3 | 23.4 |  | 
UAUAUAUAAUAUAUUAACAUGAGGAUCACCCAUGUCGCUAGACAGGAUAUAUUUAAUAUUAUUAAGUAGAAGGGUCAUAUAAUU [LRO007_SS NG 3] | 77.4 | 78.6 |  | 
GAAAAACAUGAGGAUCACCCAUGUAGAAAUAUGGGAGGAUAUACAAAGACGAAAGUCAAAGUAGAAGGCCCAUAAG [Starry Same State 1.6 (mat747 round 1 mod)] |  |  | 16.2 | 13.7
GCCAUCGCAUGAGGAUAUGGCACCGUUUCGGUGCCAGAAGGCAUGUCAUAAGACAUGAGGAUCACCCAUGUAAAUAAGAUGGCA [JanderMod 3 - Jieux - Same State NG 1] | 47.9 | 715 |  | 
AAUAUAUUAAGUGAGGAUAUCAUAGGAAAAACAUGAGGAUCACCCAUGUGGGAAACCUGGUCGGGUGAGAAGGUGCUUAAUAUAU [Samwise Clockwise 32 - Jieux - Same State 2] |  |  | 235 | 50.6
CGGAGACAUGAGGAUCACCCAUGUGAGAAGAGGCGAGGAUAUCGAAAGAAAGAAGAGAAACGAGAAGGCGCGAGGA [salish99-SS1-067] |  |  | 38.8 | 22.7
GGAACUACAGAUCAGGAUAUGUUUGGGUAAACAUGAGGAUCACCCAUGUGCACCCGAUACACAGGACAGAAGGGAUAACGUGGGA [Maondior] |  |  | 20.2 | 15.5
CUAAUAUAGUGAGGAUAUGCACAGGAUCACCGUGUAGAAGGCAUCAGGUAGAAGGUGCAGAGGAUCACCCUGUAAGGAUAUACC [pwkr2 ssNG1 DX.4] | 32.4 | 69.4 |  | 

Sequence | apparent KD of MS2 coat protein (MS2 coat protein [1]; input ligand: FMN 200 uM) [nM] | apparent KD of MS2 coat protein (MS2 coat protein [1]; input ligand: none) [nM] | apparent KD of MS2 coat protein (MS2 coat protein [2]) [nM] | apparent KD of MS2 coat protein (MS2 coat protein [3]) [nM]
AGAAAUAAAAGAGAGGAUAUCCAAAAGAAAACAUGAGGAUCACCCAUGUGAAAGAAAAGAAAAUGGGAGAAGGCUCAAAAUAAGA [Topaz 18] |  |  | 55.4 | 22.5
AAAAGACAUGAGGAUCACCCAUGUGAAAACAUACAAGGAUAUGUGUGGAAACCGUACUAUACAGAAGGUGUAUGUC [SS1 - 85] |  |  | 28.5 | 19.7
AUAUGAGCUAUGGAGGAUAUCCACAAUAAAACAUGAGGAUCACCCAUGUAAGAAAGAAAAGAAUGGGAGAAGGCCAUAGCUCAAU [SS 2 M45] |  |  | 17.5 | 7.54
AUAAUAUUAAGCUAGGAUAUACUAAAGUAAACAUGAGGAUCACCCAUGUAAAAAAAAAAACUCAUGUAGAAGGAGCAUAAAUAAA [moonwalk 9] |  |  | 15 | 12.2
AAAAGACAUGAGGAUCACCCAUGUCAAGACAUAGGAGGAUAUGUCUUGAAAAAAGACUUGACAGAAGGCCUUUGUC [SS1 - 58] |  |  | 21.1 | 16.5
AACAAUCUAUCUGAGGAUAUCAUAAAAAAGACAUGAGGAUCACCCAUGUAGCAGGAAACUGCAUAUGAGAAGGCAGAUAGAUUGA [SS2: 1122] |  |  | 18.1 | 29.6
GAAAUACAUGAGGAUCACCCAUGUUAGGUGGGUCAAGGAUAUUAAGGUAAAUAAAAACCUUGAGAAGGUGAAUAAA [JR_SS001_Sub203] |  |  | 239 | 157
AAAAAACAUGAGGAUCACCCAUGUAAAAAAAACACAGGAUAUCCCUUUUUAAAAAAAAAAGGAGAAGGGUGAAAAA [Nob's Hobby 6 - Jieux - Same State 1] |  |  | 28 | 29.8
AAAAAACAUGAGGAUCACCCAUGUCCAAAAAAAAAAGGAUAUGCAAAAAAAAAAAAAAAAGCAGAAGGUUUAAAAA [Same State 1] |  |  | 45.1 | 41.2
CGAAAGGAGAGAGAGGAUAUCCAAAGGAAAACAUGAGGAUCACCCAUGUAGAAGGUAGGAGAUUGGGAGAAGGCUCAAGCUAAAC [salish99-ss2-158] |  |  | 37.3 | 40.2
GGGAGGAAGAGAGAGGAUAUCCAAAGGAAAACAUGAGGAUCACCCAUGUAAAAGGUAGGAAAUUGGGAGAAGGCUCAAGAGACCG [salish99-ss2-057] |  |  | 37.9 | 34.2
GAAAAACAUGAGGAUCACCCAUGUAAUACAACGUCAGGAUAUUGAUUUUAUUAUGUAUUGCAAGAAGGGACAAAAG [Mat - Same State 1 - Hyphema mod - D99] |  |  | 49.4 | 95.2
GGAAAUAACAGAGAGGAUAUCCAAAGGAAAACAUGAGGAUCACCCAUGUAAAAGGAAGGAAAUUGGGAGAAGGCUCAAAAUAAAU [salish99-ss2-015] |  |  | 29.1 | 20.4
AUAAAACAUGAGGAUCACCCAUGUAAUAAGAACCGAGGAUAUGGAAAUAAUAAUAAUAAACCAGAAGGUGGUGAUC [Meechl MS2 SS1] |  |  | 105 | 110
AUCAGGAAGAGAGAGGAUAUCCAAAGGAAAACAUGAGGAUCACCCAUGUAAAAGGUAGGAAAUUGGGAGAAGGCUCAAGAGAGAG [salish99-ss2-093] |  |  | 29.3 | 26.4
AACAAUCUAUCUGAGGAUAUGUGUCGAAAGACAUGAGGAUCACCCAUGUGAAAACAUGAAAAGAUACAGAAGGCAGAUAGAUUGA [SS2: 1155] |  |  | 35.9 | 26.6
GAGGACGUAGGAUAGGAUAUAUGAAUAAUUACAUGAGGAUCACCCAUGUCCAUUUAUAUGGGAACAUAGAAGGGUUGUGGUUAUC [SameState2 Malc#35] |  |  | 491 | 446
AAGAAACAUGAGGAUCACCCAUGUACCCAAAAGGGAGGAUAUGGAAAAGAAAGAAAGAAACCAGAAGGCCCAUGAA [Artabanus the Hyrcanian] |  |  | 22.2 | 10.8
AGAAAACAUGAGGAUCACCCAUGUAGAAAUAUGGGAGGAUAUACAAAGACGAAAGUCGAGGUAGAAGGCCUAAAGA [Mat - Same State 1 - Meechl mod - D122] |  |  | 103 | 21.7
AAACCACAUGAGGAUCACCCAUGUAAAAAUAUGGAAGGAUAUGCGAAAAGAAACAAAGAAGCAGAAGGUCUAAAAA [75%, Ex sub1, 20] |  |  | 27.7 | 15.2
